Laboratory results from PMC11393077.

Target: CTD peptide containing two heptad repeats with one Ser5 phosphorylation site
Assay: fluorescence polarisation

Kd: 21 µM
Substance: Human prolyl isomerase 1 (PIN1) (from UniProt Q13526 1-163) (enzyme)
